Test results published in patent publication US20210072252A1 (WASHINGTON UNIVERSITY, published 2021).

Experiments:
[1] = target: T1, peptide with N-terminal histidine; test: biolayer interferometry kinetics; reference: truncated wild-type HisRS fragment
T1 construct: also called peptides with N-terminal histidine residues

[2] = target: T1, peptide with N-terminal histidine; test: biolayer interferometry (Blitz), peptide-coated sensor, NAAB in 1x PBS, 1:1 fit, kd/ka

B1: engineered HisNAAB (3-180) (designed binder)
chain: KNIQAIRGMNDYLPGETAIWQRIEGTLKNVLGSYGYSEIRLPIVEQTPLFKRAIGEVTDVVEKEMYTFEDRNGDSLTLRPEGTAGCVRAGIEHGLLYNQEQRLWYIGPMFGNAPQFHQLGCEVFGLQGPDIDAELIMLTARWWRALGISEHVTLELNSIGSLEARANYRDA
fold improvement in binding affinity against the wild-type fragment [1]: ~10 fold
Kd [2]: 98.7 µM
